These results are taken from PMC3659105, “Profiling Epidermal Growth Factor Receptor and Heregulin Receptor 3 Heteromerization Using Receptor Tyrosine Kinase Heteromer Investigation Technology” (PLoS ONE, 2013).

One test addresses T1, HER3 (Homo sapiens, UniProt P21860).
T1 construct: used to replace the C terminus of the full-length constructs (with or without Rluc8); host or cells: HEK293FT
Put plainly: Ligand-induced BRET between HER3/Rluc8 and Grb2/Venus (+ pcDNA3). It counts as cell-based. The protocol: (§1) HEK293FT cells (Life Technologies) were maintained at 37°C in 5% CO2 and complete media (Dulbecco's modified Eagle's medium (DMEM) containing 0.3 mg/ml glutamine, 100 IU/ml penicillin and 100 µg/ml streptomycin (GIBCO BRL, Carlsbad, CA, USA)) supplemented with 10% foetal calf serum (FCS) and 400 µg/ml Geneticin (Gibco). Transient transfections were carried out 24 h after seeding about 550,000 cells/well of a 6-well plate. Genejuice (Merck, Kilsyth, Australia) transfection reagent was used according to the manufacturer's instructions. Cells were harvested with 0.05% Trypsin-EDTA (Gibco).
HEK293FT cells were transiently transfected with cDNA encoding a RTK fused to Rluc8 (RTK/Rluc8) and Grb2 fused to Venus (Grb2/Venus), along with a second RTK that was untagged with respect to BRET signaling, or empty vector (pcDNA3). […] BRET measurements were taken at 37°C using the VICTOR Light plate reader with Wallac 1420 software (PerkinElmer, Glen Waverley, Victoria, Australia). Filtered light emissions were sequentially measured at 400–475 and 520–540 nm. The BRET signal was calculated by subtracting the ratio of 520–540 nm emission over 400–475 nm emission for a vehicle-treated cell sample from the same ratio for a second aliquot of the same cells treated with agonist, as described previously, [35]. […]
Data were analyzed using Prism 5 graphing software (GraphPad, La Jolla, CA, USA). […]
Background: Bioluminescence resonance energy transfer reports proximity on the nanometre scale.

A further test has as its target T2, EGFR-HER3 heteromer (Homo sapiens, UniProt P00533+P21860).
T2 construct: used to replace the C terminus of the full-length constructs (with or without Rluc8); host or cells: HEK293FT
Put plainly: RTK-HIT BRET between HER3/Rluc8 and Grb2/Venus with untagged EGFR co-expressed. It counts as cell-based. The conditions noted are these: HEK293FT cells, about 25 minutes of agonist stimulation. The protocol: as §1
Following initial titration of cDNA amounts (data not shown), two ratios were selected for the heteromer combinations shown in Figure 2. […] BRET measurements were taken at 37°C using the VICTOR Light plate reader with Wallac 1420 software (PerkinElmer, Glen Waverley, Victoria, Australia). Filtered light emissions were sequentially measured at 400–475 and 520–540 nm. The BRET signal was calculated by subtracting the ratio of 520–540 nm emission over 400–475 nm emission for a vehicle-treated cell sample from the same ratio for a second aliquot of the same cells treated with agonist, as described previously, [35].

T1 sequence (P21860 20-1342): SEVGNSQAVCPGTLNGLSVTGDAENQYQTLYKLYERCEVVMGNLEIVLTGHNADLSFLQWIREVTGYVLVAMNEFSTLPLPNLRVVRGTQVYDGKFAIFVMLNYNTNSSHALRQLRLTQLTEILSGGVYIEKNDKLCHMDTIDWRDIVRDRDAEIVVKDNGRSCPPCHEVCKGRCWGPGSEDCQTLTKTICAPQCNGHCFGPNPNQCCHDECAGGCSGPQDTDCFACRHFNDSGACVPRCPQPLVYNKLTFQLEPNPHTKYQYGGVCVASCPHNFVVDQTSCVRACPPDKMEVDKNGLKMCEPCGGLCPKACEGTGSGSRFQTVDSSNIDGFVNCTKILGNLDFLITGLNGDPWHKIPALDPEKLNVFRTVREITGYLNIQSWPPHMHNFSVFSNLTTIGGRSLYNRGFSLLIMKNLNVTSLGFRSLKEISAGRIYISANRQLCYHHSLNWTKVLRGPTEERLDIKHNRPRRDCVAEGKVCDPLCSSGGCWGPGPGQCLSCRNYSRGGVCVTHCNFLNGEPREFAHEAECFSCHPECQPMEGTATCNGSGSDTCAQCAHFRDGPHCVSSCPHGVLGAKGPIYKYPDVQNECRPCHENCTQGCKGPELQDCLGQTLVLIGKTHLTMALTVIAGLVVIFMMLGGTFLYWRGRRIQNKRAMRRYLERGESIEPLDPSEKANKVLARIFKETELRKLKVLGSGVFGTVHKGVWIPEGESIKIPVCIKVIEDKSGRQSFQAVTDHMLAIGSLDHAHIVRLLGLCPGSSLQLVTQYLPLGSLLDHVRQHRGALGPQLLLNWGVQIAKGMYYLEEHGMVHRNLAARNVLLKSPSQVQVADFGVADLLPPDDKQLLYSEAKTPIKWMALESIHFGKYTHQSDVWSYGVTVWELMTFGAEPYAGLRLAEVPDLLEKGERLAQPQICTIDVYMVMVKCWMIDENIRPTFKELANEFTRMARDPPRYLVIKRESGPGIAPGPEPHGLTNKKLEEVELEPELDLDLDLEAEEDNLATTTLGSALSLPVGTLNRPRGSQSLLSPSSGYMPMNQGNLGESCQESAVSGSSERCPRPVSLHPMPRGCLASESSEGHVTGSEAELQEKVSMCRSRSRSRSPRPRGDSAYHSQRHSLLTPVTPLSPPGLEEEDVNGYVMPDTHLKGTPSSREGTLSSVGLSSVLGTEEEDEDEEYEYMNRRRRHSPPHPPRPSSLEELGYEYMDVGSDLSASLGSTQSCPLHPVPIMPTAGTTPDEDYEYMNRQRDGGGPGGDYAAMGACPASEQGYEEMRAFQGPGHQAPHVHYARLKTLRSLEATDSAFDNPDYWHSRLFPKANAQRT

`COc1cc2ncnc(Nc3cccc(Cl)c3)c2cc1OC.Cl` [AG-1478, AG-1478 hydrochloride, reference compound]: the “effect on BRET” value on HER3 (increasing concentrations of AG-1478, pre-treated or not with 20 nM EGF or HRG) is “no effect”.

In the case of “EGF: epidermal growth factor, ligand selective for EGFR”, the “agonist-induced BRET signal” value in the test with HER3 (HER3/Rluc8 + Grb2/Venus without EGFR, 1 µM agonist, kinetic) was “no or little BRET signal”.

Turning to HRG: Heregulin-β1, ligand of HER3, the pEC50 (usually the EC50 on a negative log10 scale, so that one unit is a factor of ten) in the test with EGFR-HER3 heteromer is 7.46±0.14 (n = 5).
